Results published in patent US7888116B2, “Uses of notch receptors, notch ligands, and notch modulators in methods related to metabolic diseases” (The United States of America as represented by the …, priority 2005, dated 2011).

System: Notch-1 (NICD)
Assay: NICD nuclear translocation in RIN cells (indirect immunofluorescence, immunoblot of nuclear extracts)
Type: cell-based, rat
Details: RIN cells treated with secretagogues
Experimental: Islet isolation, cell culture and treatments. Adult rat (Sprague-Dawley) and mouse (C57/BL6) islets were isolated by collagenase P digestion and cultured overnight in M199 medium (5 mM glucose). RIN 1046-38 β-cells were cultured as outlined previously (Wang, et al., Endocrinology, 142:1820-1827 (2001)). Isolated human islets came from David Harlan, Transplant Section, NIDDK. Ex-4, GLP-1, CCK (all used at concentrations previously shown to cause maximum insulin release), Ex and the γ-secretase inhibitor, L-685,458, were obtained from Bachem. H89 was from Calbiochem, insulin was from Sigma. The Jagged peptides, R-JAG […] (SEQ ID NO:1), JAG-1 […] (SEQ ID NO:2), and scrambled control peptide without agonist activity, sc-Jagged […] (Nickoloff, et al., Cell Death Differ, 9842-855 (2002)) (SEQ ID NO:3), were synthesised by New England Peptide Inc. […]
RIN cells were permeabilized in Triton-X (0.1%) on ice and blocked for 1 h at room temperature in 3% BSA and 0.1% Tween in PBS. They were incubated overnight at 4° C. with the primary antibody, washed in PBS and incubated with fluorescent labelled secondary antibody for 1 h, washed and mounted with fluorescence mounting medium (Vector Laboratories). […] AlexaFluor antibodies (Molecular Probes; Eugene, Oreg.) were excited with the 488-nm line of a krypton-argon laser and recorded at the presence of emission filter BP515-565 nm. […]

B1: Cholecystokinin (peptide, UniProt P06307 21-115, looked up)
Cholecystokinin: QPVPPADPAGSGLQRAEEAPRRQLRVSQRTDGESRAHLGALLARYIQQARKAPSGRMSIVKNLQNLDPSHRISDRDYMGWMDFGRRSAEEYEYPS
modifications: Cholecystokinin
notes: increases insulin secretion in a non-cAMP dependent manner
nuclear NICD / NICD translocation: did not increase NICD translocation above that seen with glucose alone
